Experimental data published in the supplement of paper PMC10126150.
± gives the standard deviation of the averaged measurements.

tested on: ATP; assay: switch fluorescence ratio, 500 uM ATP over buffer (Cy3 cluster intensity, sum of 5 cycles each) (fold (ratio)); higher = stronger signal-on switching upon ATP binding; sequences stand for … in TCGTCGGCAGCGTCAGATGTGTATAAGAGACAGTTTTTTTTTTTTTTTTTTTTTTTTT…TC; conditions: aptamer strand: ATP DNA aptamer (quencher-CACCTGGGGGAGTATTGCGGAGGAAGG + anchor), 100 nM annealed; ATP concentration: 500 uM
Procedure, shortened: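 The fluorescence ratio divides summed target-cycle Cy3 intensity by summed buffer-cycle Cy3 intensity for each cluster and is averaged per switch-domain sequence. Cy3-labelled switching-strand clusters on a modified Illumina MiSeq flow-cell were annealed to 100 nM quencher-labelled ATP aptamer, then imaged in selection buffer and again after 15 min with 500 uM ATP at 22 °C. Five such cycles were run, with NaOH stripping and re-annealing between them, and clusters outside 100-1000 RFU were excluded.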
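Note: ATP exposure 15 min at 22 °C before imaging.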

CTGGGGGATG and CTGGGGGCGC are within error of each other in switch fluorescence ratio: 0.9863 ± 0.0027 for the first, 0.996 ± 0.03 for the second.

CTGGGGGGCT and CTGGGGGGTG are the same in switch fluorescence ratio: 1.02 ± 0.021 for the first, 1.02 ± 0.024 for the second.

CTGGGGGTAT and CTGGGGGTTA are within error of each other in switch fluorescence ratio: 1 ± 0.03 for the first, 0.999 ± 0.059 for the second.

CTGGGGTAAT and CTGGGGTGGC are the same in switch fluorescence ratio: 1.028 ± 0.0095 for the first, 1.03 ± 0.046 for the second.

Compared with CTGGGGTTGG, CTGGGTAATA is higher in switch fluorescence ratio: 0.968 ± 0.012 for the first, 1.08 ± 0.047 for the second.

CTGGGTATTG and CTGGGTCTTT are within error of each other in switch fluorescence ratio: 0.971 ± 0.012 for the first, 0.99 ± 0.015 for the second.

CTGGGTTGTA and CTGGTAAGGT are within error of each other in switch fluorescence ratio: 1 ± 0.012 for the first, 0.9947 ± 0.0074 for the second.

CTGGTAGGGT and CTGGTATAGT are within error of each other in switch fluorescence ratio: 1.02 ± 0.02 for the first, 1.03 ± 0.03 for the second.

CTGGTATGTG and CTGGTCATGT are within error of each other in switch fluorescence ratio: 0.997 ± 0.029 for the first, 0.995 ± 0.05 for the second.

CTGGTCGAAT and CTGGTCGCT are within error of each other in switch fluorescence ratio: 1 ± 0.017 for the first, 0.976 ± 0.017 for the second.

CTGGTGGTGG and CTGGTTAAGG are within error of each other in switch fluorescence ratio: 0.986 ± 0.075 for the first, 0.957 ± 0.017 for the second.

CTGGTTATTT and CTGGTTGGAG are within error of each other in switch fluorescence ratio: 1.04 ± 0.076 for the first, 0.995 ± 0.022 for the second.

CTGGTTTCGA and CTGGTTTTCA are within error of each other in switch fluorescence ratio: 1.017 ± 0.0082 for the first, 0.988 ± 0.024 for the second.

CTGGTTTTGC and CTGTAACGAG are within error of each other in switch fluorescence ratio: 0.998 ± 0.022 for the first, 1.008 ± 0.0075 for the second.

CTGTAAGGAA and CTGTAATGTT are within error of each other in switch fluorescence ratio: 0.989 ± 0.026 for the first, 0.992 ± 0.011 for the second.

CTGTAGAGAG and CTGTAGGCCC are within error of each other in switch fluorescence ratio: 1.01 ± 0.063 for the first, 1.05 ± 0.097 for the second.

CTGTAGGGGG and CTGTAGGTGT are within error of each other in switch fluorescence ratio: 1.07 ± 0.13 for the first, 1.06 ± 0.029 for the second.

First: CTGTAGTCTG
Second: CTGTATTAGT
The switch fluorescence ratio of the first is higher: 1.11 ± 0.019 for the first, 1.02 ± 0.027 for the second.

Going from CTGTATTCGC to CTGTCAGACT, the switch fluorescence ratio falls from 1.172 ± 0.0037 to 1.03 ± 0.058.

CTGTCTGGGG and CTGTCTGGGT are within error of each other in switch fluorescence ratio: 0.9737 ± 0.0033 for the first, 0.993 ± 0.029 for the second.

CTGTGACAAT and CTGTGAGGCT are within error of each other in switch fluorescence ratio: 1.04 ± 0.029 for the first, 1 ± 0.042 for the second.

Compared with CTGTGCAAGT, CTGTGCGCCC is lower in switch fluorescence ratio: 1.47 ± 0.073 for the first, 1.09 ± 0.058 for the second.

CTGTGGTGGG and CTGTGTTGTG are within error of each other in switch fluorescence ratio: 0.996 ± 0.051 for the first, 0.998 ± 0.015 for the second.

First: CTGTTAATTG
Second: CTGTTACGCA
The switch fluorescence ratio of the first is lower: 1.016 ± 0.0081 for the first, 1.201 ± 0.0046 for the second.

Compared with CTGTTCATGG, CTGTTCATTG is lower in switch fluorescence ratio: 1.02 ± 0.019 for the first, 0.9807 ± 0.0037 for the second.

CTGTTCTTTG and CTGTTGACTG are within error of each other in switch fluorescence ratio: 0.982 ± 0.019 for the first, 0.983 ± 0.041 for the second.

CTGTTTAAGG and CTGTTTAGTC are within error of each other in switch fluorescence ratio: 0.986 ± 0.013 for the first, 1.01 ± 0.015 for the second.

First: CTGTTTCACA
Second: CTGTTTGGGG
The switch fluorescence ratio of the first is lower: 0.949 ± 0.046 for the first, 1.004 ± 0.0028 for the second.

CTGTTTTGGG and CTGTTTTTTG are within error of each other in switch fluorescence ratio: 1.03 ± 0.032 for the first, 0.976 ± 0.03 for the second.

CTTAAAGTGC and CTTAAAGTTA are within error of each other in switch fluorescence ratio: 1.05 ± 0.069 for the first, 1.01 ± 0.018 for the second.

CTTAAATTGT and CTTAAATTTA are within error of each other in switch fluorescence ratio: 1.01 ± 0.011 for the first, 1.02 ± 0.022 for the second.

CTTAACAGAA and CTTAATTTTG are within error of each other in switch fluorescence ratio: 0.9912 ± 0.0059 for the first, 0.973 ± 0.027 for the second.

Compared with CTTACAAGC, CTTACGCAGC is higher in switch fluorescence ratio: 1.04 ± 0.026 for the first, 1.59 ± 0.016 for the second.

Going from CTTACTATTC to CTTAGAAAGC, the switch fluorescence ratio rises from 0.9715 ± 0.0069 to 1.05 ± 0.022.

CTTAGAATCG and CTTAGAATGA are within error of each other in switch fluorescence ratio: 1 ± 0.025 for the first, 0.979 ± 0.025 for the second.

Compared with CTTAGATTTG, CTTAGCATTG is higher in switch fluorescence ratio: 0.9655 ± 0.0076 for the first, 1.03 ± 0.023 for the second.

CTTAGCCACT and CTTAGCGGGA are within error of each other in switch fluorescence ratio: 1.036 ± 0.0065 for the first, 1.02 ± 0.025 for the second.

CTTAGCGGGG and CTTAGCTTGC are within error of each other in switch fluorescence ratio: 0.9827 ± 0.0064 for the first, 1.02 ± 0.054 for the second.

First: CTTAGGACGC
Second: CTTAGGGATT
The switch fluorescence ratio of the first is higher: 1.22 ± 0.0055 for the first, 0.987 ± 0.031 for the second.

Going from CTTAGGTGAC to CTTAGTCTTT, the switch fluorescence ratio falls from 1.034 ± 0.004 to 1.018 ± 0.0027.

First: CTTAGTTAGT
Second: CTTAGTTTCG
The switch fluorescence ratio of the first is lower: 0.993 ± 0.01 for the first, 1.035 ± 0.0071 for the second.

CTTATAGTTT and CTTATATCTT are within error of each other in switch fluorescence ratio: 1.01 ± 0.016 for the first, 0.993 ± 0.025 for the second.

Going from CTTATCTTTT to CTTATTAGCG, the switch fluorescence ratio rises from 0.986 ± 0.0097 to 1.03 ± 0.019.

CTTATTGAGC and CTTATTTCGT are within error of each other in switch fluorescence ratio: 1.01 ± 0.012 for the first, 1.001 ± 0.0018 for the second.

CTTCACAGGG and CTTCACTACG are within error of each other in switch fluorescence ratio: 1.06 ± 0.04 for the first, 1.12 ± 0.043 for the second.

Compared with CTTCAGGAGC, CTTCAGTCTT is lower in switch fluorescence ratio: 1.69 ± 0.11 for the first, 1 ± 0.011 for the second.

CTTCATGGGT and CTTCATGGTC are within error of each other in switch fluorescence ratio: 0.962 ± 0.013 for the first, 0.96 ± 0.017 for the second.

Compared with CTTCCTATTG, CTTCGGGTAC is higher in switch fluorescence ratio: 1.08 ± 0.046 for the first, 3.69 ± 0.79 for the second.

Going from CTTCGTGCGA to CTTCTCTATC, the switch fluorescence ratio falls from 1.14 ± 0.023 to 1.01 ± 0.027.

CTTCTTTTGG and CTTGAAACGT are within error of each other in switch fluorescence ratio: 0.996 ± 0.032 for the first, 0.992 ± 0.076 for the second.

CTTGAAGGGG and CTTGAATGCG are the same in switch fluorescence ratio: 0.999 ± 0.036 for the first, 0.999 ± 0.031 for the second.

Going from CTTGACATA to CTTGAGCAGG, the switch fluorescence ratio rises from 1.03 ± 0.011 to 1.2 ± 0.038.

CTTGAGGGGA and CTTGATAAAA are within error of each other in switch fluorescence ratio: 0.983 ± 0.032 for the first, 1.01 ± 0.017 for the second.

Compared with CTTGATATTG, CTTGATGCGA is higher in switch fluorescence ratio: 0.999 ± 0.018 for the first, 1.032 ± 0.0045 for the second.

CTTGCACCC and CTTGCATTGA are within error of each other in switch fluorescence ratio: 1.07 ± 0.024 for the first, 1.08 ± 0.071 for the second.

CTTGCCGATT and CTTGCTGCTG are within error of each other in switch fluorescence ratio: 0.968 ± 0.029 for the first, 0.972 ± 0.044 for the second.

First: CTTGGACGGG
Second: CTTGGCAAGG
The switch fluorescence ratio of the first is lower: 0.9706 ± 0.0021 for the first, 1.03 ± 0.04 for the second.

CTTGGCGGGC and CTTGGCTGTT are within error of each other in switch fluorescence ratio: 1.01 ± 0.04 for the first, 0.986 ± 0.018 for the second.

CTTGGGGGGT and CTTGGGTAAG are within error of each other in switch fluorescence ratio: 0.97564 ± 0.00052 for the first, 0.988 ± 0.033 for the second.

CTTGGGTATA and CTTGGGTTGC are within error of each other in switch fluorescence ratio: 1.25 ± 0.29 for the first, 0.9961 ± 0.0092 for the second.

Compared with CTTGTAACCT, CTTGTAGCAG is lower in switch fluorescence ratio: 1.8 ± 0.061 for the first, 1.09 ± 0.021 for the second.

CTTGTATGGG and CTTGTCCAGC are within error of each other in switch fluorescence ratio: 1.01 ± 0.029 for the first, 1.04 ± 0.037 for the second.

CTTGTCGTTC and CTTGTGAGTT are within error of each other in switch fluorescence ratio: 1.01 ± 0.026 for the first, 0.979 ± 0.016 for the second.

CTTGTGTGGT and CTTGTTAGGA are within error of each other in switch fluorescence ratio: 1.02 ± 0.014 for the first, 1 ± 0.012 for the second.

CTTGTTAGTA and CTTGTTGATT are within error of each other in switch fluorescence ratio: 0.987 ± 0.027 for the first, 1.009 ± 0.0056 for the second.

CTTGTTTGAC and CTTTAACGTG are within error of each other in switch fluorescence ratio: 0.988 ± 0.044 for the first, 0.9718 ± 0.004 for the second.

Going from CTTTAAGCAA to CTTTAAGGCA, the switch fluorescence ratio falls from 4.65 ± 0.36 to 0.981 ± 0.017.

CTTTAAGGGG and CTTTAATTTT are the same in switch fluorescence ratio: 1.01 ± 0.03 for the first, 1.01 ± 0.055 for the second.

CTTTACGGGC and CTTTATAGGA are within error of each other in switch fluorescence ratio: 1.02 ± 0.038 for the first, 0.9944 ± 0.0056 for the second.

CTTTATAGTT and CTTTATGCGA are within error of each other in switch fluorescence ratio: 1.02 ± 0.034 for the first, 1.033 ± 0.0093 for the second.

Compared with CTTTCAAAAA, CTTTCAGGCT is lower in switch fluorescence ratio: 1.03 ± 0.015 for the first, 0.984 ± 0.016 for the second.

CTTTCTTTTT and CTTTGCCTAG are within error of each other in switch fluorescence ratio: 0.992 ± 0.018 for the first, 0.9806 ± 0.0088 for the second.

Compared with CTTTGGATTG, CTTTGGGCAA is higher in switch fluorescence ratio: 0.99917 ± 0.00068 for the first, 1.46 ± 0.089 for the second.

CTTTGGGGAC and CTTTGGGGCG are within error of each other in switch fluorescence ratio: 1.055 ± 0.006 for the first, 1.01 ± 0.044 for the second.

CTTTGGGTTT and CTTTGGTAGG are within error of each other in switch fluorescence ratio: 0.981 ± 0.058 for the first, 0.992 ± 0.025 for the second.

CTTTGGTATA and CTTTGGTTGA are within error of each other in switch fluorescence ratio: 0.977 ± 0.0051 for the first, 0.995 ± 0.031 for the second.

For CTTTGTCGGT, the switch fluorescence ratio was 1.03 ± 0.054.
